Laboratory results from patent US20160032013A1 (Genentech, published 2016).

T1: Mouse RON on cells (3T3-mRON cells; mouse colon and skin) (mouse, UniProt Q62190 24-1378)
T1 sequence: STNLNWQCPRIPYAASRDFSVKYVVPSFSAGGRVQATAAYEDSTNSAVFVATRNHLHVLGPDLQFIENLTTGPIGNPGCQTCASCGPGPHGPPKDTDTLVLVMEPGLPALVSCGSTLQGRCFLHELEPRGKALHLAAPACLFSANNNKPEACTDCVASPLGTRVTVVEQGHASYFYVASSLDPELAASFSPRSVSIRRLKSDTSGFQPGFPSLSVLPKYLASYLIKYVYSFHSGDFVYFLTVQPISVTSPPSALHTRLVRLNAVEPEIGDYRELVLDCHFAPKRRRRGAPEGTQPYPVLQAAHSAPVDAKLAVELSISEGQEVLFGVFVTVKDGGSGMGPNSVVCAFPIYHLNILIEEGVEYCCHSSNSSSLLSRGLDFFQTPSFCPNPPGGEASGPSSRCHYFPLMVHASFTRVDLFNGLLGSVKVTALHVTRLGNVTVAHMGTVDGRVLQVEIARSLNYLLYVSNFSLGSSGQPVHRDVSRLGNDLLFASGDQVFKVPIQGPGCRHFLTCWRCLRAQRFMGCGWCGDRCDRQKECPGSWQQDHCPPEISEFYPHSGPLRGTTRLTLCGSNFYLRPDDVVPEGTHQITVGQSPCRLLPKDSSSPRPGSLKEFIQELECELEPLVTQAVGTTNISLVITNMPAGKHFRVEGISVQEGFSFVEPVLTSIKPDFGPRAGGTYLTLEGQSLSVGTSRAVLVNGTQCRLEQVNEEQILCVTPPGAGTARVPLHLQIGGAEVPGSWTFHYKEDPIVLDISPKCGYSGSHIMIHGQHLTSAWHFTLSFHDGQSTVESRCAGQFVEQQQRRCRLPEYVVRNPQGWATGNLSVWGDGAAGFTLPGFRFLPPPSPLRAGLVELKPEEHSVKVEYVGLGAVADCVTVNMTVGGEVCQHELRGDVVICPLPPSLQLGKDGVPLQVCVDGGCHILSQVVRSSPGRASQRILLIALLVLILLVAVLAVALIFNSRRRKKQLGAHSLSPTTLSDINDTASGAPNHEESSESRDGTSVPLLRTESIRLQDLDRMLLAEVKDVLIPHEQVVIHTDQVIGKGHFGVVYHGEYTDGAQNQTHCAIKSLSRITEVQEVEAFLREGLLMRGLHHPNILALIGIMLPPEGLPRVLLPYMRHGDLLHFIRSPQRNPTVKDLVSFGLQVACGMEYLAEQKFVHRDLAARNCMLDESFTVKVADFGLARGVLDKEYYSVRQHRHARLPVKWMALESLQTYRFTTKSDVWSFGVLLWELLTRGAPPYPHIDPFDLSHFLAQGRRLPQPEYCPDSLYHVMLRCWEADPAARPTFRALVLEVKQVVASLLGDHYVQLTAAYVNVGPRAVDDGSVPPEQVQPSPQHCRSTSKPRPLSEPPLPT


Legend:
[1] = biological target: T2, Mouse RON-hIgG1 Fc (murine RON Sema/PSI/IPT1, natural leader + R33-V684, fused to human IgG1 Fc) (mouse); assay: SPR (Biacore), anti-Fc chip, murine RON-Fc captured and MSP protein injected; table headed 'Similar High Affinities for Murine RON'
T2 construct: also called mRON-hFc; murine RON-Fc
Experimental: (§1) Binding kinetics of RON to MSP β-Fc fusion proteins and MSP proteins to RON-Fc fusions were determined using a Biacore 3000 optical biosensor equipped with a research-grade CM5 sensor chip (GE Healthcare). Amine coupling reagents, N-ethyl-N′-dimethylamino-propylcarbodiimide (EDC), N-hydroxy-succinimide (NHS) and sodium ethanolamine HCl, pH 8.5, were obtained from GE Healthcare. Standard coupling protocols were used to tether a rabbit anti-human IgG1 or rabbit anti-murine IgG2a (Jackson ImmunoResearch Laboratories) onto the biosensor surface. A biosensor chip that was subjected to the amine coupling procedure with no protein coupled was used to correct for non-specific binding. […] Various concentrations (500-3.9 nM, 2-fold dilution series) of RON-His, were injected in HBS-P buffer (10 mM HEPES, pH 7.5, 150 mM NaCl, 0.005% P20) at 25° C. with a flow rate of 30 μL/min and dissociation monitored for 240 sec. Between measurements, the biosensor surfaces were regenerated with a 120 s pulse of 10 mM glycine-HCl pH 1.5 followed by a 120 s wash with running buffer.
To function as a RON agonist, MSPβ-IgG2a fusion proteins must bind the RON receptor. To assay binding, surface plasmon resonance was used to measure the affinity of full-length human MSP, human and mouse MSP β, and a number of human and mouse MSPβ-IgG2a fusions for immobilized RON receptor. […]

[2] = biological target: T1, Mouse RON on cells (3T3-mRON cells; …); assay: cell-based or functional assay
[3] = biological target: T1, Mouse RON on cells (3T3-mRON cells; …); assay: flow cytometry on 3T3-mRON cells
[4] = biological target: T2, Mouse RON-hIgG1 Fc (murine RON …); assay: SPR (Biacore), anti-Fc chip; legend names murine RON-Fc; the sheet's scheme ('RON or MSP' over 'MSP-Fc or RON-Fc') and have the MSPβ-Fc fusion captured and soluble RON-His injected
Experimental: as §1

| Binder | Kd [1] | fold increase in Akt phosphorylation, MSD, colon of injected mice [2] | EC50 (read off the curve) [3] | Kd [4] |
| --- | --- | --- | --- | --- |
| Hexahistidine-tagged murine MSP β (HGF leader + V489-E716 + C593A + C677A + His tag) (ligand, also called Mouse MSP β) VVGGHPGNSPWTVSLRNRQGQHFCGGSLVKEQWVLTARQCIWSCHEPLTGYEVWLGTINQNPQPGEANLQRVPVAKAVCGPAGSQLVLLKLERPVILNHHVALIALPPEQYVVPPGTKCEIAGWGESIGTSNNTVLHVASMNVISNQECNTKYRGHIQESEICTQGLVVPVGACEGDYGGPLACYTHDAWVLQGLIIPNRVCARPRWPAIFTRVSVFVDWINKVMLEHHHHHHH | 6.4 nM |  |  |  |
| Mouse MSP β-L16-mIgG2a Fc (Fc fusion, also called m16m) VVGGHPGNSPWTVSLRNRQGQHFCGGSLVKEQWVLTARQCIWSCHEPLTGYEVWLGTINQNPQPGEANLQRVPVAKAVCGPAGSQLVLLKLERPVILNHHVALIALPPEQYVVPPGTKCEIAGWGESIGTSNNTVLHVASMNVISNQECNTKYRGHIQESEICTQGLVVPVGACEGDYGGPLACYTHDAWVLQGLIIPNRVCARPRWPAIFTRVSVFVDWINKVMQLEQVTDKKIEPRGPTIKPCPPCKCPAPNLLGGPSVFIFPPKIKDVLMISLSPIVTCVVVDVSEDDPDVQISWFVNNVEVHTAQTQTHREDYNSTLRVVSALPIQHQDWMSGKEFKCKVNNKDLPAPIERTISKPKGSVRAPQVYVLPPPEEEMTKKQVTLTCMVTDFMPEDIYVEWTNNGKTELNYKNTEPVLDSDGSYFMYSKLRVEKKNWVERNSYSCSVVHEGLHNHHTTKSFSRTPGK |  | ~2.5 fold | ~0.05 µg/mL | 8.4 nM |
| Mouse MSP β-L12-mIgG2a Fc (Fc fusion, also called m12m; mMSPβ-L12-mIgG2a) VVGGHPGNSPWTVSLRNRQGQHFCGGSLVKEQWVLTARQCIWSCHEPLTGYEVWLGTINQNPQPGEANLQRVPVAKAVCGPAGSQLVLLKLERPVILNHHVALIALPPEQYVVPPGTKCEIAGWGESIGTSNNTVLHVASMNVISNQECNTKYRGHIQESEICTQGLVVPVGACEGDYGGPLACYTHDAWVLQGLIIPNRVCARPRWPAIFTRVSVFVDWINKVMQLEKKIEPRGPTIKPCPPCKCPAPNLLGGPSVFIFPPKIKDVLMISLSPIVTCVVVDVSEDDPDVQISWFVNNVEVHTAQTQTHREDYNSTLRVVSALPIQHQDWMSGKEFKCKVNNKDLPAPIERTISKPKGSVRAPQVYVLPPPEEEMTKKQVTLTCMVTDFMPEDIYVEWTNNGKTELNYKNTEPVLDSDGSYFMYSKLRVEKKNWVERNSYSCSVVHEGLHNHHTTKSFSRTPGK |  | ~2.3 fold | ~0.05 µg/mL | 10.4 nM |
| Mouse MSP β-L4-mIgG2a Fc (Fc fusion, also called m4m) VVGGHPGNSPWTVSLRNRQGQHFCGGSLVKEQWVLTARQCIWSCHEPLTGYEVWLGTINQNPQPGEANLQRVPVAKAVCGPAGSQLVLLKLERPVILNHHVALIALPPEQYVVPPGTKCEIAGWGESIGTSNNTVLHVASMNVISNQECNTKYRGHIQESEICTQGLVVPVGACEGDYGGPLACYTHDAWVLQGLIIPNRVCARPRWPAIFTRVSVFVDWINKVMQLETIKPCPPCKCPAPNLLGGPSVFIFPPKIKDVLMISLSPIVTCVVVDVSEDDPDVQISWFVNNVEVHTAQTQTHREDYNSTLRVVSALPIQHQDWMSGKEFKCKVNNKDLPAPIERTISKPKGSVRAPQVYVLPPPEEEMTKKQVTLTCMVTDFMPEDIYVEWTNNGKTELNYKNTEPVLDSDGSYFMYSKLRVEKKNWVERNSYSCSVVHEGLHNHHTTKSFSRTPGK |  | ~2.6 fold |  | 8.3 nM |
| Mouse MSP β-L8-mIgG2a Fc (Fc fusion, also called m8m) VVGGHPGNSPWTVSLRNRQGQHFCGGSLVKEQWVLTARQCIWSCHEPLTGYEVWLGTINQNPQPGEANLQRVPVAKAVCGPAGSQLVLLKLERPVILNHHVALIALPPEQYVVPPGTKCEIAGWGESIGTSNNTVLHVASMNVISNQECNTKYRGHIQESEICTQGLVVPVGACEGDYGGPLACYTHDAWVLQGLIIPNRVCARPRWPAIFTRVSVFVDWINKVMQLEPRGPTIKPCPPCKCPAPNLLGGPSVFIFPPKIKDVLMISLSPIVTCVVVDVSEDDPDVQISWFVNNVEVHTAQTQTHREDYNSTLRVVSALPIQHQDWMSGKEFKCKVNNKDLPAPIERTISKPKGSVRAPQVYVLPPPEEEMTKKQVTLTCMVTDFMPEDIYVEWTNNGKTELNYKNTEPVLDSDGSYFMYSKLRVEKKNWVERNSYSCSVVHEGLHNHHTTKSFSRTPGK |  | ~2 fold | ~0.05 µg/mL | 8.5 nM |
